The source of these data is patent publication US20080207488A1, “Method for Detecting Peptides Comprising a Cross-B Structure” (priority 2005, published 2008).

For series [1], the target named is T1, tPA (Homo sapiens, UniProt P00750).
T1 construct: purchased Boehringer-Ingelheim (Actilyse, Alteplase)
As to the kind of experiment: tPA ELISA with proteins pre-incubated with DXS500k. The class given is binding.

Series [2] has as its target T2, factor XII (Homo sapiens, UniProt P00748).
T2 construct: purchased Calbiochem, EMD Biosciences #233490
T2 sequence (P00748 20-615): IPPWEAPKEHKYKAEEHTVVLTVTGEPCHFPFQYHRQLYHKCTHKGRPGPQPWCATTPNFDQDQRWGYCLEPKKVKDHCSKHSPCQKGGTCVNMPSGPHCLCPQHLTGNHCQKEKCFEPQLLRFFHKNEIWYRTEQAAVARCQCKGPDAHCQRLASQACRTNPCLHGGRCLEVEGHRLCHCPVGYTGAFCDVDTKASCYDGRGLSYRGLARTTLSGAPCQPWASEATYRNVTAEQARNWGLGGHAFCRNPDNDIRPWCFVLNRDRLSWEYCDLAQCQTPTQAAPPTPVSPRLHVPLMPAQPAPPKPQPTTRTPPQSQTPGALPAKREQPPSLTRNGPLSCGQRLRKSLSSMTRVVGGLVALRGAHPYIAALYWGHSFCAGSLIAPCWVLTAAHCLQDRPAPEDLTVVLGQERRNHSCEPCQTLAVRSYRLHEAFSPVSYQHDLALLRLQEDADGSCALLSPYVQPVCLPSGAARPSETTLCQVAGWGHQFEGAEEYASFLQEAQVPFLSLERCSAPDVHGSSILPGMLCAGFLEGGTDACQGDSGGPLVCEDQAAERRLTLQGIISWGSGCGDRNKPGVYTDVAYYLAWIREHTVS
The series is described as follows: Factor XII auto-activation assay with substrate S-2222. The class given is biochemical. Conditions: purified factor XII, 100 μg ml^−1 FP13 K157G, 10 μg ml^−1 Aβ(1-40) E22Q, 10 μg ml^−1 Hb-AGE, DXS500k 1 μg ml^−1 as comparator. The protocol:
Plasmin (Pls) activity was assayed as described^7. Peptides and proteins that were tested for their stimulatory ability were regularly used at 100 μg ml^−1. […] Chromogenic substrate S-2251 (Chromogenix, Instrumentation Laboratory SpA, Milano, Italy) was used to measure Pls activity. Conversion of zymogen factor XII (#233490, Calbiochem, EMD Biosciences, Inc., San Diego, Calif.) to proteolytically active factor XII (factor XIIa) was assayed by measurement of the conversion of chromogenic substrate Chromozym-PK (Roche Diagnostics, Almere, The Netherlands) by kallikrein. Chromozym-PK was used at a concentration of 0.3 mM. Factor XII, human plasma prekallikrein (#529583, Calbiochem) and human plasma cofactor high-molecular weight kininogen (#422686, Calbiochem) were used at concentrations of 1 μg ml^−1. […] Assays were performed using microtiter plates (Costar, Cambridge, Mass., USA). […] The conversion of Chromozym-PK was recorded kinetically at 37° C. for at least 60 minutes. […] With S-2222, activation of factor XII in plasma was measured, using 60% v/v plasma, diluted with substrate and H2O with or without potential cofactor. Furthermore, auto-activation of factor XII was measured by incubating 53 μg ml^−1 purified factor XII in 50 mM Tris-HCl buffer pH 7.5 with 1 mM EDTA and 0.001% v/v Triton-X100, with S-2222 and H2O with or without potential cofactor.

The nature of series [3]: Congo red fluorescence. Type of series: physicochemical. The protocol:
Background signals from buffer, buffer with Congo red and protein/peptide solution without Congo red were subtracted from corresponding measurements with protein solution incubated with Congo red. Fluorescence was measured in triplicate on a Hitachi F-4500 fluorescence spectrophotometer (Ltd., Tokyo, Japan).
(§1) Formulated protein therapeutics were obtained from the local hospital pharmacy and were used as supplied by the manufacturers. […] Lyophilized therapeutics were dissolved according to the manufacturers recommendations. […] Other protein therapeutics were only kept at 4° C., and assayed for the presence of cross-β structure conformation at shown time points. Enhancement in fluorescence of ThT and Congo red was measured with all formulated protein therapeutics. For this purpose, proteins were diluted to the indicated concentrations. […] Zinc-insulin was diluted tenfold in the activation assay, GH was diluted to a final concentration of 500 μg ml^−1. Activation of factor XII and prekallikrein by the therapeutics was tested in the chromogenic factor XII assay (see above). […] After coating, plates were blocked with Blocking Reagent (Roche Diagnostics, Almere, The Netherlands).
(§2) Protein therapeutics were obtained from the local hospital pharmacy and analyzed within the expiry limits as stated by the manufacturers.

Series [4] can be described thus: Thioflavin T fluorescence. The class given is physicochemical. The protocol:
Fluorescence of ThT-protein/peptide adducts was measured as follows. […] Fluorescence was measured at 485 nm upon excitation at 435 nm. Background signals from buffer, buffer with ThT and protein/peptide solution without ThT were subtracted from corresponding measurements with protein solution incubated with ThT. […] Fluorescence was measured in triplicate on a Hitachi F-4500 fluorescence spectrophotometer (Ltd., Tokyo, Japan).
as §1
To prepare structurally altered ovalbumin (OVA) with amyloid cross-β structure conformation, purified OVA (Sigma, A-7641, lot 071k7094) was heated to 85° C. One mg ml^−1 OVA in 67 mM NaPi buffer pH 7.0, 100 mM NaCl, was heated for two cycles in PCR cups in a PTC-200 thermal cycler (MJ Research, Inc., Waltham, Mass., USA). In each cycle, OVA was heated from 30 to 85° C. at a rate of 5° C./min. Native OVA (nOVA) and heat-denatured OVA (dOVA) were tested in the ThT fluorescence assay and in the Plg-activation assay. In the fluorescence assay and in the Plg-activation assay, 25 and 100 μg ml^−1 nOVA and dOVA were tested, respectively. TEM images of nOVA and dOVA were taken to check for the presence of large aggregates. […] MSA (#126674, Calbiochem) was dissolved in 8 M urea, 100 mM Tris-HCl pH 8.2, at 10 mg ml^−1 final concentration. Dithiothreitol (DTT) was added to a final concentration of 10 mM. Air was replaced by N2 and the solution was incubated for 2 h at room temperature. Then, the solution was transferred to ice and iodoacetamide was added from a 1 M stock to a final concentration of 20 mM. […] Alkyl-MSA was dialyzed against H2O before use. […] In the ThT-fluorescence assay 25 μg ml^−1 nMSA and alkyl-MSA were tested, and in the Plg-activation assay 100 μg ml^−1 was tested. The presence of aggregates or fibrils was analyzed using TEM. […]
as §2

Series [5] deals with T1, tPA. The series is described as follows: Plasminogen-activation assay (tPA-mediated Plg to Pls, S-2251). The class given is biochemical. Conditions: stored at 4° C.; GH 500 μg ml^−1, zinc-insulin diluted tenfold. On the procedure: Plasmin (Pls) activity was assayed as described^7. Peptides and proteins that were tested for their stimulatory ability were regularly used at 100 μg ml^−1. […] Chromogenic substrate S-2251 (Chromogenix, Instrumentation Laboratory SpA, Milano, Italy) was used to measure Pls activity. Conversion of zymogen factor XII (#233490, Calbiochem, EMD Biosciences, Inc., San Diego, Calif.) to proteolytically active factor XII (factor XIIa) was assayed by measurement of the conversion of chromogenic substrate Chromozym-PK (Roche Diagnostics, Almere, The Netherlands) by kallikrein. Chromozym-PK was used at a concentration of 0.3 mM. Factor XII, human plasma prekallikrein (#529583, Calbiochem) and human plasma cofactor high-molecular weight kininogen (#422686, Calbiochem) were used at concentrations of 1 μg ml^−1. […] Assays were performed using microtiter plates (Costar, Cambridge, Mass., USA). Peptides and proteins were tested for their ability to activate factor XII. 150 μg ml^−1 kaolin, an established activator of factor XII was used as positive control and solvent (H2O) as negative control. The conversion of Chromozym-PK was recorded kinetically at 37° C. for at least 60 minutes. Assays were done in duplicate. […] Alternatively, chromogenic substrate S-2222 (Chromogenix) was used to follow the activity of factor XII itself. With S-2222, activation of factor XII in plasma was measured, using 60% v/v plasma, diluted with substrate and H2O with or without potential cofactor. Furthermore, auto-activation of factor XII was measured by incubating 53 μg ml^−1 purified factor XII in 50 mM Tris-HCl buffer pH 7.5 with 1 mM EDTA and 0.001% v/v Triton-X100, with S-2222 and H2O with or without potential cofactor.
as §1
Purification of β2-glycoprotein I (β2GPI) was performed according to established methods^11,12. Recombinant human β2GPI was made using insect cells and purified as described^11. Plasma derived β2GPI as used in a factor XII ELISA, the chromogenic Plg-activation assay and in the anti-phospholipid syndrome antibody ELISA (see below), was purified from fresh human plasma as described^12.
To prepare structurally altered ovalbumin (OVA) with amyloid cross-β structure conformation, purified OVA (Sigma, A-7641, lot 071k7094) was heated to 85° C. One mg ml^−1 OVA in 67 mM NaPi buffer pH 7.0, 100 mM NaCl, was heated for two cycles in PCR cups in a PTC-200 thermal cycler (MJ Research, Inc., Waltham, Mass., USA). In each cycle, OVA was heated from 30 to 85° C. at a rate of 5° C./min. Native OVA (nOVA) and heat-denatured OVA (dOVA) were tested in the ThT fluorescence assay and in the Plg-activation assay. In the fluorescence assay and in the Plg-activation assay, 25 and 100 μg ml^−1 nOVA and dOVA were tested, respectively. TEM images of nOVA and dOVA were taken to check for the presence of large aggregates. […] MSA (#126674, Calbiochem) was dissolved in 8 M urea, 100 mM Tris-HCl pH 8.2, at 10 mg ml^−1 final concentration.

Series [6] addresses T1, tPA. As to the kind of experiment: tPA ELISA with coated protein therapeutics. Conditions: 5 μg ml^−1 coated, stored at 4° C. The class given is binding. On the procedure: as §1
A general note: In an ELISA, binding on a coated surface is turned into a signal by an enzyme label.

Series [7] addresses T1, tPA. The series is described as follows: tPA binding assay with immobilized biopharmaceuticals in an ELISA. To be noted: therapeutic coated 1:10; one-site binding fit. The protocol: Nunc Immobilizer plates (Nalge Nunc, #436013, Rochester, N.Y., USA) were coated with 50 μL containing 5 μg/mL of sample protein (unless indicated otherwise) in 100 mM NaHCO3, pH 9.6, 0.05% m/v NaN3 for 1 hour at room temperature. Plates were washed twice with Tris buffered saline pH 7.2 containing 0.1% Tween20 (TBST) and blocked with PBS containing 1% Tween20 for 1 hour at room temperature. […] Plates were washed five times with TBST and incubated with peroxidase labeled anti-mouse immunoglobulins (RAMPO; DAKOCytomation, Glostrup, Denmark) diluted 1:3000 in PBST for 30 minutes at room temperature. Plates were washed five times with PBS 0.1% Tween20, and stained with 100 μL/well of tetramethyl-benzidine (TMB) substrate (Biosource Europe, Nivelles, Belgium). The reaction was terminated with 50 μL/well of 2 M H2SO4 and substrate conversion was read at 450 nm on a Spectramax340 microplate reader. Curves were fitted with a one-site binding model (GraphPad Prism version 4.02 for Windows, Graphpad Software, CA, USA) from which Kd and Bmax were determined.
as §2

Series [8] relates to U937 monocytes. The series is described as follows: TNFα RNA upregulation in U937 monocytes (RT-PCR). Type of series: cell-based, human. To be noted: 1 h stimulation; 100 μg ml^−1 amyloid endostatin, 260 μg ml^−1 Hb-AGE; LPS 1 μg ml^−1; normalized to 18S. The protocol:
U937 monocytes were cultured in six-wells plates. Cells were stimulated with buffer (negative control), 1 μg ml^−1 LPS (positive control), 100 μg ml^−1 amyloid endostatin^1,7, 260 μg ml^−1 Hb-AGE and 260 μg ml^−1 control Hb. After 1 h of stimulation, cells were put on ice. After washing RNA was isolated and quantified spectrophotometrically. Normalized amounts of RNA were used for 26 cycli of RT-PCR with human TNFα primer and 18 cycli of RT-PCR with ribosomal 18S primer for normalization purposes. DNA was analyzed on a 2% agarose gel.

The mark [9] stands for this setting: marketed biopharmaceutical within expiry limits, five μL tested.

T1 sequence (P00750 36-562): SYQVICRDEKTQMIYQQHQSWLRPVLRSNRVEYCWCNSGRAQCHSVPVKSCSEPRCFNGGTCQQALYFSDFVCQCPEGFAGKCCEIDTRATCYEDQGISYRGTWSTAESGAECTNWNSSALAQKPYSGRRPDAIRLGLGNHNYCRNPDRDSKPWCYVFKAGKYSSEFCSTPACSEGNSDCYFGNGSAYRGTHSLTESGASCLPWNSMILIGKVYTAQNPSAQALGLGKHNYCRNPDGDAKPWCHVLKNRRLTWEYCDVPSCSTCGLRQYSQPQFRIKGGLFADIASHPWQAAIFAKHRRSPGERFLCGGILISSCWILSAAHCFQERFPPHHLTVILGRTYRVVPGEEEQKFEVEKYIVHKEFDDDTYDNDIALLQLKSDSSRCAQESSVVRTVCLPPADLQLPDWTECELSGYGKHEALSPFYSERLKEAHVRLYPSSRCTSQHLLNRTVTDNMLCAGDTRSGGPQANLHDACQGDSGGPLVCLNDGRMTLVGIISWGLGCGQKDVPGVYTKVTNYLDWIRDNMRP

As for “factor XII: zymogen factor XII (Calbiochem), here pre-incubated with DXS500k”, the “tPA binding to protein pre-incubated overnight with DXS500k” value in series [1] was “binds specifically”.

With “freshly dissolved FP13 K157G: FP13 K157G peptide freshly dissolved, not aggregated (KRLEVDIDIGIRS)”, in series [2], the “potency to induce factor XII auto-activation” value is “did not or hardly auto-activate factor XII”.

As to “Somatropin: human growth hormone (GH) (Genotropin, Pharmacia)”, the “Fluorescence (a.u. +/− SD) CR” value in series [3] (setting [9]) was 429 +/− 2 a.u. For the same substance, the “enhancement of Congo red fluorescence” value in series [3] (therapeutics stored at 4° C.) is “to some extent”. Besides, the “Fluorescence (a.u. +/− SD) ThT” value in series [4] (setting [9]) was 1317 +/− 10 a.u. For the same substance, in series [4] (therapeutics stored at 4° C.), the “enhancement of ThT fluorescence” value was “enhance fluorescence of ThT”. Further, the “tPA activation by protein therapeutics” value in series [5] was “induced tPA activation”. For the same substance, the “binding of tPA to immobilized therapeutic” value in series [6] is given as “binding of tPA was established”. In series [7], the “tPA Binding Bmax (OD450 nm)” value is on record as 0.9369 OD450 nm.

As to “Hb-AGE: human haemoglobin incubated 32 weeks at 37° C. with glucose-6-phosphate”, the “TNFα RNA expression when compared to LPS” value in series [8] was “approximately 30%”.
